Laboratory results published in the supplement of paper PMC9112550, “Optimization of the antimicrobial peptide Bac7 by deep mutational scanning” (BMC Biology, 2022).

System: Escherichia coli TOP10
Assay: shrunken log2 fold change of peptide-encoding DNA abundance (4.5 h post-induction vs induction); higher = less antimicrobial activity (less host growth inhibition)
Conditions: time post-induction: 4.5 h; library: site-saturation at positions 5, 18, 19, 20
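Also: peptides expressed intracellularly from a pBAD plasmid library in pooled LB shake-flask culture, induced with 0.3% L-arabinose, DNA abundance read by NGS, three biological replicates, DESeq2 with apeglm shrinkage.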

| Sequence | shrunken log2 fold change |
| --- | --- |
| RRIRWRPPRLPRPRPRPWRSPRP | 0.49 |
| RRIRPRPPRLPRPRPRPPMKPRP | 0.0802 |
| RRIRQRPPRLPRPRPRPIMWPRP | 0.0394 |
| RRIRMRPPRLPRPRPRPDGCPRP | 2.12 |
| RRIRGRPPRLPRPRPRPGACPRP | 0.911 |
| RRIRWRPPRLPRPRPRPRDYPRP | -0.127 |
| RRIRTRPPRLPRPRPRPYQYPRP | -0.546 |
| RRIRWRPPRLPRPRPRPHASPRP | 0.134 |
| RRIRWRPPRLPRPRPRPHCGPRP | -0.0645 |
| RRIRDRPPRLPRPRPRPTIEPRP | 0.324 |
| RRIRRRPPRLPRPRPRPLNEPRP | 0.162 |
| RRIRYRPPRLPRPRPRPYHGPRP | -0.139 |
| RRIRWRPPRLPRPRPRPEDWPRP | 0.947 |
| RRIRLRPPRLPRPRPRPEVMPRP | 0.0474 |
| RRIRYRPPRLPRPRPRPNDFPRP | -0.0506 |
| RRIRWRPPRLPRPRPRPQETPRP | -0.00116 |
| RRIRARPPRLPRPRPRPDQMPRP | 0.386 |
| RRIRIRPPRLPRPRPRPVDVPRP | -0.675 |
| RRIRQRPPRLPRPRPRPGQKPRP | -0.00973 |
| RRIRKRPPRLPRPRPRPEFKPRP | 0.165 |
| RRIRFRPPRLPRPRPRPYPDPRP | 0.0764 |
| RRIRIRPPRLPRPRPRPQSLPRP | -0.321 |
| RRIRRRPPRLPRPRPRPDIMPRP | -0.146 |
| RRIRKRPPRLPRPRPRPHIIPRP | 0.0119 |
| RRIRYRPPRLPRPRPRPNERPRP | -0.0497 |

| Sequence | shrunken log2 fold change |
| --- | --- |
| RRIRARPPRLPRPRPRPPCHPRP | 0.219 |
| RRIRTRPPRLPRPRPRPFAHPRP | -0.039 |
| RRIRHRPPRLPRPRPRPKWWPRP | 0.0178 |
| RRIRDRPPRLPRPRPRPTVAPRP | 1.14 |
| RRIRRRPPRLPRPRPRPSYFPRP | -0.395 |
| RRIRKRPPRLPRPRPRPNQPPRP | 0.146 |
| RRIRNRPPRLPRPRPRPVMAPRP | 0.156 |
| RRIRIRPPRLPRPRPRPWCQPRP | -0.339 |
| RRIRERPPRLPRPRPRPFTVPRP | -0.00987 |
| RRIRVRPPRLPRPRPRPHVPPRP | -0.044 |
| RRIRKRPPRLPRPRPRPCWVPRP | 0.259 |
| RRIRDRPPRLPRPRPRPGYWPRP | 0.242 |
| RRIRPRPPRLPRPRPRPCMAPRP | -0.151 |
| RRIRRRPPRLPRPRPRPSNQPRP | 0.00316 |
| RRIRQRPPRLPRPRPRPGMVPRP | 0.0259 |
| RRIRHRPPRLPRPRPRPTLRPRP | -0.0301 |
| RRIRTRPPRLPRPRPRPSTIPRP | -0.386 |
| RRIRNRPPRLPRPRPRPCAIPRP | -0.0115 |
| RRIRMRPPRLPRPRPRPKWLPRP | 0.612 |
| RRIRIRPPRLPRPRPRPNYEPRP | -0.396 |
| RRIRKRPPRLPRPRPRPPGYPRP | 0.176 |
| RRIRARPPRLPRPRPRPSTLPRP | 0.111 |
| RRIRARPPRLPRPRPRPWSPPRP | 0.138 |
| RRIRLRPPRLPRPRPRPIRFPRP | -0.185 |
| RRIRCRPPRLPRPRPRPCHYPRP | -0.403 |

| Sequence | shrunken log2 fold change |
| --- | --- |
| RRIRCRPPRLPRPRPRPQEAPRP | 0.0141 |
| RRIRKRPPRLPRPRPRPEWFPRP | 0.219 |
| RRIRIRPPRLPRPRPRPDAGPRP | 0.158 |
| RRIRLRPPRLPRPRPRPFLGPRP | -0.0654 |
| RRIRTRPPRLPRPRPRPRKPPRP | 0.225 |
| RRIRMRPPRLPRPRPRPWTTPRP | -0.0163 |
| RRIRSRPPRLPRPRPRPDKCPRP | -0.173 |
| RRIRVRPPRLPRPRPRPWHSPRP | -0.435 |
| RRIRTRPPRLPRPRPRPFMNPRP | -0.787 |
| RRIRYRPPRLPRPRPRPQSLPRP | -0.0376 |
| RRIRGRPPRLPRPRPRPAYLPRP | 0.235 |
| RRIRIRPPRLPRPRPRPRLLPRP | -0.003 |
| RRIRERPPRLPRPRPRPSIFPRP | -0.343 |
| RRIRVRPPRLPRPRPRPCQPPRP | -0.236 |
| RRIRERPPRLPRPRPRPMQTPRP | 0.0432 |
| RRIRVRPPRLPRPRPRPLHRPRP | -0.0175 |
| RRIRYRPPRLPRPRPRPVDVPRP | -0.359 |
| RRIRLRPPRLPRPRPRPESKPRP | 0.286 |
| RRIRERPPRLPRPRPRPQPNPRP | -0.084 |
| RRIRERPPRLPRPRPRPSKYPRP | -1.02 |
| RRIRERPPRLPRPRPRPKRIPRP | 0.103 |
| RRIRQRPPRLPRPRPRPLADPRP | 0.194 |
| RRIRYRPPRLPRPRPRPMCSPRP | -0.116 |
| RRIRLRPPRLPRPRPRPNFEPRP | 0.0189 |
| RRIRWRPPRLPRPRPRPRDKPRP | 0.347 |
